# Measured values as given in a protein production outcome set (Wang et al. 2014).
# Test: label from the status in PepcDB records
row,Sequence,protein production
1,MGHHHHHHSHMADNMTTTQIEVGPGATNATINFEAGILECYERFSWQRALDYPGQDRLHRLKRKLESRIKTHNKSEPENKRMSLEERKAIGVKMMKVLLFMDPSAGIEGFEPY,not failed
2,MFDSVLQQSMQQWLETSLGQYVLEQEQRYFDRVVTDIFGYNATQIGFSGFDFLRNNRMPFKFAFGVRDGASVYAHPHFLPIKSSSIDLVLLPHTLEFNSNPHQILREAHRVLIPEGKVIISGFNPFSLWGMRQRMAKSKTDFPWCGRFIALPRMQDWLELHNFEIVAGQFGCYVPPCTREKWLSRLRFMEAAGDRWWPIAGGVYFLQAVKHECGLHIITPRWEDSPAKRGTVVVPQIERGHRMNNLEVSTVPWREKAGGGLIENRKYGVQYSVNNRDV,failed
3,MEKSNVFLLSILLMASLFSISHAFQLWGYAIDRVSIRGVVYCSLDGDPSAPPVSNATVYIECPGGSNSTLAQAVTNQVGVFTLPWLMFIANYAIGASRQ,failed
4,RRLNDELLGKVVSVVSATERTEWYPALVISPSCNDDITVKKDQCLVRSFIDSKFYSIARKDIKEVDILNLPESELSTKPGLQKASIFLKTRVVPDNWKM,failed
5,MFMREIELRGHIIDSLILPKVFDKILDMGGDYKVLEFEIGKRKTDPSYAKILVIGRDERHVDEILNELRDLGAEIPEIEEVELQPAEKDMVLPEGFYSTTNHKTFIRFKGKWIEVENQKMDGAIVVYPDEMRAEVKTIRNIKKGDLVVVGHKGVRVIPPEKPREGGGLFEFMKSDASSEKPKETIIRRIAKEMYEIREKYRKTGKGGIVVVGGPAIIHTGAGWALAKLIRMGYVQALFAGNALATHDIESVLYGTSLGVDLKTGKSVPGGHSHHLRAINTIMRAGSIKDAVEQGILKEGVMYECIKNNIPYVLAGSIRDDGPLPDVITDVVKAQEKMRELLKGKDMVLMLSTMLHSIATGNLLPSWVKTICVDINPAVVTKLMDRGTSQALGIVTDVGVFLPMLVEELEKLEKEKEKSEKREELEHHHHHH,not failed
6,NLLDDAVKRISEDPPCKCPTKFCVERLSQGRYRVGEKILFIRMLHNKHVMVRVGGGWETFAGYLLKHDPCRMLQISRVDGKTSP,not failed
7,MHYPVLVNPRKPSLSRMPMKKPKRASAAKAKKGRKISASRSKPATKRPAKPPRRGASLDGTKDSAKIIRGLRSKLKAAERRVAELEAAADTDFLLEIPNRRGFERELTRAIAYMKRYRATGALIVLDVDRLKPINDSFGHAAGDEVLKAIVGALTRQVRASDVVGRLGGDEFALLLWNLNETDAKAKAAAFEQTIDELSFVFRSQNVTAGASAGVALLGAHSDAGRALEEADAAMYVRKARRRHEPRIRLVSN,failed
8,MGQSIKNNFLLNLSTTITGLLFPLITFPYASRILMADGIGQVQFFQSIIDYVSLCTALGIPLYAVREIARIRDNKELRSRTTIEILLLHAILTLVGYIVVFILAKTVAKIEIDASLFFLLSTTLFFNTIGVAWFYQAIEDFKYITLRSLFVRILSLVALFIFVKTKQDLFYYAGILVIGTVGNNIFNFFRLRKYIKLSKGEFKRLNLLRHLIPALKIFILNLVISIYVNLDSVMLGFLKNEESVGYYAAATRLTKAILGIVSSLGAVLLPRFSNMITNGQKEEFQLLANKAASFTIALSLPMSVGLIFMAAPIIHIFCGNGFEPSILTLKLVAPIVLFIGLSGIIGMQILYPQGREKYVIISTMVGACINLLINYLLIPQYGQYGAALGTVIAEFMVTVIMILLGRKYLPINILSKQNLHYLIGSIVISILLAFLFVFPLHEVNYLLIGILLSVIVYYAYLLMIKDTLALQLKKLLLSIFKQ,failed
9,QGLLRAIPSITEDMPRLPTIPGNPPSALINHQGCPFRDRCDYRLARCQAETPKFMPLNGRQSIACHVKAQSSISLIHQSA,failed
10,LSNLETAKAMIAAYNAQDVDTYVSYMTDDACEANYRGDVVREGKEGTRSGLAAAFARWPQNHAEIKDAQQVGTYVLMREHVTRGPATDGSPLVEPFDVVAVYSFEGDKCSRVEFIR,not failed
11,MGSIDRYIFRTTLASFALVLVSLTGVIWITQALRGIDLMTSQGQTILTFLGITSLVVPALVLIISPIALMIAISHTLNKLATDSEIIVMNAAGFSPFRLFYPFFYATCVVALLVAFIAAYLAPDGMRRIKQWDAEITADVLTNILQPGRFAQLDKNLTIRIRERLPGGILAGIFIDDRRDPNERVSIVAEHGEVMKNDTGSFLVLETGNLQRFEVGKRDPALVAFGRYGFDMSKFSGQGRDVTLGIRERYLWELFSPSEDDPVYKQIPGQFRSALHDSLLAPIYPFAFAVLTFAFLGAPRTTRQSRNFSIGSSIVAVFGLRMAGFACSVMAVKSPAAVLVQYAMVLGAIGVGMWMIVGGIVVEPPPRLMEAINRSNARIARLFGRPATA,failed
12,MEISRGDFEQAYQNERNRMQAQLGDYFSNLLADPTYVASFRKSVLDRMVNDLLLEQHAASLGLRVSDEQVRQLILEIPQFQSQGVFDSTAYQATLRRAGFTPEMYAEYLRKDLVRNQLMSALQGSEFSLAGEVNLQDQLISQTRDIRTITLSLEDFAKKVTLSDEEIDQYYKTNTERFTRPEQVKVSYVELSADGLKAQVSVDDAAAQQYYQEHLDKYSTAEQRNVSHILIEGNDEQKAQAILDELNAGADFATLAKEKSQDLGSAAEGGSLGWIEPDTMDPAFEAAAFALTEKGQVSGLVKSDFGYHIIRLDDIKAPVVKPYSEVEQAIKQELIDQQALDSFYAKQSELEKMAFEHSDSLDEAAKAISATVVHTDFISAEQAPEVLTTPAVLQALKSPEVKEDGLNSEVIEVAPEHVVVVRVEEFRPETVLPLDEVKSQVVEQLSRMKGEQQALELGNQLVTALKAGETDLLAQKGVSFGELQMIDRSSPLANTVYAMVKPQEGEKVYAQAKDFDGNIVVIELSKVESKLTPAYHEQIATQLERIGSQQDLAGVISVLRQNTDIEYHIATELEHHHHHH,not failed
13,MVKVLTACGNGMGSSMVIKMKVENALRQLGVSDIESASCSVGEAKGLASNYDIVVASNHLIHELDGRTNGKLIGLDNLMDDNEIKTKLEEALK,failed
14,MTRPMPESIDERIKAALSKRGIDELYTHQYSAFQYVQKGESIVTVTPTASGKTLCYNLPVLQSIAQDETNRALYLFPTKALAQDQKSELNEIIDEMGIDIKSFTYDGDTSPAIRQKVRKAGHIVITNPDMLHSAILPHHTKWVSLFENLKYIVIDELHTYRGVFGSHVANVIRRLKRICRFYGSDPVFICTSATIANPKELGEQLTGKPMRLVDDNGAPSGRKHFVFYNPPIVNKPLNIRRSATAEVNELAKEFLKNKVQTIVFARSRVRVEIILSHIQELVKKEIGTKSIRGYRGGYLPKERREIERGLREGDILGVVSTNALELGVDIGQLQVCVMTGYPGSVASAWQQAGRAGRRHGESLIIMVANSTPIDQYIVRHPEYFFNRSPESARINPENLIILVDHLKCAAYELPFRADEEFGAMEVSDILEYLQEEAVLHRNGERYHWASESFPASNISLRSASQENVVIVDQSDIANVRIIGEMDRFSAMTLLHDEAIYLHEGVQYQVEKLDWDHKKAYVRKVDVEYYTDANLAVQLKVLEIDKTKEKSRTSLHYGDVTVNALPTIFKKIKMTTFENIGSGPIHLPEEELHTSAAWLEIKTADEDIGEKTLEQLLLGISNVLQHIVPVYIMCDRNDVHVVSQIKAAHTGLPTIFLYDHYPGGIGLAEEVFKRFSDINEAAKQLITHCPCHDGCPSCIGTEIEGIKAKERILQLLDQMSLEHHHHHH,not failed
15,KNASVITVGNEILKGRTVNTNAAFIGNFLTYHGYQVRRGFVVMDDLDEIGWAFRVALEVSDLVVSSGGLGPTFDDMTVEGFAKCIGQDLRIDEDALAMIKKKYGQADLTPQRLKMAKIPPSCRPIENPVGTAPGLICAVGGKKVIILPGVPKEMEALLKAMEKDIIIPD,not failed
16,MKKIGILTSGGDCGGLNAVIKGAALMALNKGLELYVIPNGYAGLYNLLNQDRLVRLDEARLDQFQASFAGSEAGHSRVKIKAISNPDKYNRIKVGMKKFDLDALIISGGDDSGSVMIDLNHNGIQCIHCPKTMDLDLQTYSVGGDSTINRIAQFVEDLKTTGRTHNRVLVTEVFGRYAGHTAFRSGVAAEADCILIPEIPVDWDVVYEHIVERFTRRIRQSDVHSGTYTIVVAEGMKNADGTDIVDESAGIDAFGHKKLAGAGKYVCQEIKKRFKTDPRMPQFMKDTGMFVEGIYEIPEVREVHPGHLVRAGHSSAYDINFGFEAGAAAVLLLLEGKTGVTISKVKGRKIEYIEASKAIEQRYVDLDQVAMYESIGTCFGRTPAAYEPILREVDGVYERIY,failed
17,MSYFDQDDKEVLAPNSDVIAATTTTATTATHGIEVATEFKPVEHPVEPLDNDLPIQCPLPEPSILNDGRIWKERVSASMRRKGDLQIVKDEAASESDGSAPKPPRPPQPNRSILPSLSAPEHNLLNLLEECNAMPPVTSKNG,failed
18,MFWIVLIVILLLALAGLFFVRAQSEREWMREVSAWQEKKGEKQAELPEIKDGMPDFPEFSLMLFHAVKTAVYWLFVGVVRFCRNYLAHESEPDRPVPPASANRADVPTASDGYSDSGNGTEEAETEAAEAAEEEAADTEDIATAVIDNRRIPFDRSIAEGLMQSESKTSPVRPVFKEITLEEATRALSSAALRETKKRYIDAFEKNGTAVPKVRVSDTPMEGLQIIGLDDPVLQRTYSRMFDADKEAFSESADYGFEPYFEKQHPSAFSAVKAENARNAPFRRHAGQEKGQAEAKSPDVSQGQSVSDGTAVRDARRRVSVNLKEPNKATVSAEARISRLIPESRTVVGKRDVEMPSETENVFTETVSSVGYGGPVYDEAADIHIEEPAAPDAWVVEPPEVPEVAVPEIDILPPPPVSEIYNRTYEPPAGFEQAQRSRIAETDHLAADVLNGGWQEETAAIADDGSEGAAERSSGQYLSETEAFGHDSQAVCPFEDVPSERPSCRVSDTEADEGAFQSEETGAVSEHLPTTDLLLPPLFNPEATQTEEELLENSITIEEKLAEFKVKVKVVDSYSGPVITRYEIEPDVGVRGNSVLNLEKDLARSLGVASIRVVETIPGKTCMGLELPNPKRQMIRLSEIFNSPEFAESKSKLTLALGQDITGQPVVTDLGKAPHLLVAGTTGSGKSVGVNAMILSMLFKAAPEDVRMIMIDPKMLELSIYEGITHLLAPVVTDMKLAANALNWCVNEMEKRYRLMSFMGVRNLAGFNQKIAEAAARGEKIGNPFSLTPDDPEPLEKLPFIVVVVDEFADLMMTAGKKIEELIARLAQKARAAGIHLILATQRPSVDVITGLIKANIPTRIAFQVSSKIDSRTILDQMGAENLLGQGDMLFLPPGTAYPQRVHGAFASDEEVHRVVEYLKQFGEPDYVDDILSGGGSEELPGIGRSGDGETDPMYDEAVSVVLKTRKASISGVQRALRIGYNRAARLIDQMEAEGIVSAPEHNGNRTILVPLDNA,failed
